# Reference: patent US20210355194A1 (TWIST BIOSCIENCE, published 2021)
# Target: T1, Acro SARS-CoV-2 (COVID-19) S1 protein (SARS-CoV-2, UniProt P0DTC2 16-685)
# T1 construct: also called SARS-CoV-2 S1
# Assay: SPR
row,Binder,Kd [µM]
1,variant 6-79 (Fc fusion) VHH: EVQLVESGGGLVQPGGSLRLSCAASGSISSIDYMGWFRQAPGKEREGVSWISSSDGSTYYADSVKGRFTISADNSKNTAYLQMNSLKPEDTAVYYCARSPSFSQIYYYYYMDVWGQGTLVTVSS,0.158
2,variant 6-75 (Fc fusion) VHH: EVQLVESGGGLVQPGGSLRLSCAASGGTFSTYWMGWFRQAPGKEREFVAAISRSGGNTYYADSVKGRFTISADNSKNTAYLQMNSLKPEDTAVYYCVRHSGTDGDSSFDYWGQGTLVTVSS,0.181
3,variant 6-53 (Fc fusion) VHH: EVQLVESGGGLVQPGGSLRLSCAASGISINTNVMGWFRQAPGKEREFVAAISTGSVTIYADSVKGRFTISADNSKNTAYLQMNSLKPEDTAVYYCARVDDFGYFDLWGQGTLVTVSS,0.14
4,variant 6-52 (Fc fusion) VHH: EVQLVESGGGLVQPGGSLRLSCAASGDTYGSYWMGWFRQAPGKEREVVAAITSGGSTVYADSVKGRFTISADNSKNTAYLQMNSLKPEDTAVYYCARVDSRFDYWGQGTLVTVSS,0.0312
5,variant 6-99 (Fc fusion) VHH: EVQLVESGGGLVQPGGSLRLSCAASGIPFRSRTMGWFRQAPGKEREFVAGISRSGASTAYADSVKGRFTISADNSKNTAYLQMNSLKPEDTAVYYCTHANDYGDYWGQGTLVTVSS,0.0516
6,variant 6-74 (Fc fusion) VHH: EVQLVESGGGLVQPGGSLRLSCAASGFAFGDSWMGWFRQAPGKERELVAAITSGGSTDYADSVKGRFTISADNSKNTAYLQMNSLKPEDTAVYYCARGLLWFGELFGYWGQGTLVTVSS,0.0739
7,variant 6-68 (Fc fusion) VHH: EVQLVESGGGLVQPGGSLRLSCAASGFTLSDRAMGWFRQAPGKEREYVAHITAGGLSNYADSVKGRFTISADNSKNTAYLQMNSLKPEDTAVYYCVHLASQTGAGYFDLWGQGTLVTVSS,0.102
8,variant 6-102 (Fc fusion) VHH: EVQLVESGGGLVQPGGSLRLSCAASGSSFSAYAMGWFRQAPGKEREFVSAIDSEGTTTYADSVKGRFTISADNSKNTAYLQMNSLKPEDTAVYYCAGDYNFWSGFDHWGQGTLVTVSS,0.0457
9,variant 6-54 (Fc fusion) VHH: EVQLVESGGGLVQPGGSLRLSCAASGFEFENHWMGWFRQAPGKEREYVAHITAGGLSNYADSVKGRFTISADNSKNTAYLQMNSLKPEDTAVYYCGRHWGIYDSSGFSSFDYWGQGTLVTVSS,0.144
10,variant 6-66 (Fc fusion) VHH: EVQLVESGGGLVQPGGSLRLSCAASGLTFSLFAMGWFRQAPGKERELVAAISSGGSTDYADSVKGRFTISADNSKNTAYLQMNSLKPEDTAVYYCARGNTKYYYDSSGYSSAFDYWGQGTLVTVSS,0.293
11,variant 6-72 (Fc fusion) VHH: EVQLVESGGGLVQPGGSLRLSCAASGSTLSINAMGWFRQAPGKEREFVAAIDWSGGSTAYADSVKGRFTISADNSKNTAYLQMNSLKPEDTAVYYCARDSSATRTGPDYWGQGTLVTVSS,0.0928
12,variant 6-82 (Fc fusion) VHH: EVQLVESGGGLVQPGGSLRLSCAASGSSLDAYGMGWFRQAPGKEREFVAAISWGGGSIYYADSVKGRFTISADNSKNTAYLQMNSLKPEDTAVYYCARLSQGMVALDYWGQGTLVTVSS,0.0071
13,variant 6-51 (Fc fusion) VHH: EVQLVESGGGLVQPGGSLRLSCAASGYTYSSYVMGWFRQAPGKEREFVAAISRFGSTYYADSVKGRFTISADNSKNTAYLQMNSLKPEDTAVYYCARDSGEHFWDSGYIDHWGQGTLVTVSS,0.0352
14,variant 6-57 (Fc fusion) VHH: EVQLVESGGGLVQPGGSLRLSCAASGLTFDDHSMGWFRQAPGKEREFVAAVPLSGNTYYADSVKGRFTISADNSKNTAYLQMNSLKPEDTAVYYCASFSGGPADFDYWGQGTLVTVSS,0.205
15,variant 6-81 (Fc fusion) VHH: EVQLVESGGGLVQPGGSLRLSCAASGFIGNYHAMGWFRQAPGKEREFVAAVTWSGGTTNYADSVKGRFTISADNSKNTAYLQMNSLKPEDTAVYYCAREGYYYDSSGYPYYFDYWGQGTLVTVSS,0.0129
16,variant 6-84 (Fc fusion) VHH: EVQLVESGGGLVQPGGSLRLSCAASGFTPDDYAMGWFRQAPGKEREFVAAINSGGSYTYYADSVKGRFTISADNSKNTAYLQMNSLKPEDTAVYYCARDRGPWGQGTLVTVSS,0.0826
17,"variant 6-63 (Fc fusion, VHH-Fc) VHH: EVQLVESGGGLVQPGGSLRLSCAASGQTFNMGWFRQAPGKEREFVAAIGSGGSTSYADSVKGRFTISADNSKNTAYLQMNSLKPEDTAVYYCWRLGNDYFDYWGQGTLVTVSS",0.0218
18,variant 6-97 (Fc fusion) VHH: EVQLVESGGGLVQPGGSLRLSCAASGFTFSSLAMGWFRQAPGKEREFVAAITWSGDITNYADSVKGRFTITADNSKNTAYLQMNSLKPEDTAVYYCLRLSSSGFDHWGQGTLVTVSS,4.07
19,variant 6-90 (Fc fusion) VHH: EVQLVESGGGLVQPGGSLRLSCAASGFPFSIWPMGWFRQAPGKEREFVAAVRWSSTYYADSVKGRFTISADNSKNTAYLQMNSLKPEDTAVYYCATGECDGGSCSLAYWGQGTLVTVSS,0.114
20,variant 6-67 (Fc fusion) VHH: EVQLVESGGGLVQPGGSLRLSCAASGSFSNYAMGWFRQAPGKEREFVAAISSSGALTSYADSVKGRFTISADNSKNTAYLQMNSLKPEDTAVYYCWIVGPGPLDGMDVWGQGTLVTVSS,0.0556
21,variant 6-65 (Fc fusion) VHH: EVQLVESGGGLVQPGGSLRLSCAASGLPFSTLHMGWFRQAPGKEREFVASLSIFGATGYADSVKGRFTISADNSKNTAYLQMNSLKPEDTAVYYCWMYYYDSSGYYGNYYYGMDVWGQGTLVTVSS,0.89
22,variant 6-70 (Fc fusion) VHH: EVQLVESGGGLVQPGGSLRLSCAASGFNLDDYADMGWFRQAPGKEREFVAAIGWGGGSTRYADSVKGRFTISADNSKNTAYLQMNSLKPEDTAVYYCAREILWFGEFGEPNVWGQGTLVTVSS,0.0359
23,variant 6-62 (Fc fusion) VHH: EVQLVESGGGLVQPGGSLRLSCAASGSTFSGNWMGWFRQAPGKEREFVAVISWTGGSTYYADSVKGRFTISADNSKNTAYLQMNSLKPEDTAVYYCATHNSLSGFDYWGQGTLVTVSS,0.151
24,variant 6-71 (Fc fusion) VHH: EVQLVESGGGLVQPGGSLRLSCAASGITFSNDAMGWFRQAPGKEREFVAIITSSDTNDTTNYADSVKGRFTISADNSKNTAYLQMNSLKPEDTAVYYCARLHYYDSSGYFDYWGQGTLVTVSS,0.155
25,variant 6-103 (Fc fusion) VHH: EVQLVESGGGLVQPGGSLRLSCAASGRTSSPIAMGWFRQAPGKEREPVAVRWSDDYTYYADSVKGRFTISADNSKNTAYLQMNSLKPEDTAVYYCAKKLGGYYAFDIWGQGTLVTVSS,0.0236
